Source: article PMC8972186

Assays:
[1] = biological target: dynamic microtubules grown from purified bovine brain tubulin (bovine) (UniProt Q6B856); assay: optical trap rupture force assay
[2] = biological target: dynamic microtubules grown from purified bovine brain tubulin (bovine) (UniProt Q6B856); assay: optical trap force clamp assay

“wild-type Ndc80 complex (from UniProt P40460 1-691; P33895 1-451; Q04477 1-213; P40014 1-221)” gave a median rupture strength [1] of 3.2 pN and a percent of beads tracking with shortening microtubule tips under 1.5 pN [2] of 7%.
